Patent US20230391854A1 (Innovent, published 2023)

These binders were tested against nCoV S (ACRO, SPN-C52H4) (SARS-CoV-2, UniProt P0DTC2 16-1213).

| Binder | EC50 |
| --- | --- |
| P5-22 (antibody, V domains shown, also called candidate antibody molecule P5-22) VH: EVQLVESGGGLVKPGGSLRLSCAASGFTFRDYDIIWIRQAPGKGLEWVSYISRSGSTIYYSDSVRGRFTISRDNAKNSVYLQMNSLRAEDTAVYYCARDFGFEGPRMDVWGQGTTVTVSS VL: DIQMTQSPSSLSASVGDRVTITCQASQDIKNYLNWYQQKPGKAPKLLIYDASNLETGVPSRFSGSGSGTDFTFTISSLQPEDIATYYCQQFDNLPITFGQGTRLEIK | 22.6 pM |
| P10-20 (antibody, V domains shown, also called candidate antibody molecule P10-20) VH: QVQLVESGGGLVKPGGSLRLSCAASGFTFSDYYMSWIRQAPGKGLEWVSYISISSTYTNYADSVKGRFTISRDNAKNSLYLQMNSLRAEDTAVYYCVIAAAGKGHYYYGMDVWGQGTTVTVSS VL: not shown | 18.4 pM |
| P15-16 (antibody, V domains shown, also called candidate antibody molecule P15-16) VH: QVQLVESGGGLVQPGRSLTLSCAASGFTFDDYAMHWVRQAPGKGLEWVSGISWNSGTIDYADSVKGRFTISRDNAKNSLYLQMNSLRAEDTALYYCATLPRERAYSGYDRIFYTIDVWGQGTTVTVSS VL: not shown | 22.8 pM |
| P3-11 (antibody, V domains shown, also called candidate antibody molecule P3-11) VH: QVQLVESGGGLVQPGGSLRLSCAASGITVSSNYMSWVRQAPGKGLEWVSVIYSGGSTFYADPVKGRLTISRDNSKNTLYLQMNSVRVEDTAVYYCARGEGWELPFDYWGQGALVTVSS VL: QSALTQPPSASGSPGQSVTISCTGTSSDVGGNKYVSWYQQHPGKAPKLIIYEVSKRPSGVPDRFSGSKSGNTASLTVSGLQAEDEADYHCSSYAGSNNLVFGGGTKLTVL | 22.6 pM |
| P23-29 (antibody, V domains shown, also called candidate antibody molecule P23-29) VH: QVQLQESGPGLVKPSETLSLTCTVSGDSISSSTYYWGWIRQPPGKGLEWIGSMYYGRSTYYNPSLKSRVTVSVDTSKNQLSLKVSSVTAADTAVYYCARHLGGVDYWGQGTLVTVSS VL: DIQMTQSPSSLSASVGDRVTITCRASQGISNSLAWYQQEPGKAPKLLLYAASTLESGVPSRFSGSGSGADSTLTISSLQPEDFATYYCQQYYSASALTFGGGTKVEIK | 36.4 pM |
| P14-44 (antibody, V domains shown, also called candidate antibody molecule P14-44) VH: QVQLVQSGAEVKKPGASVKVSCKASGYIFTSYSMHWVRQAPGQGLEWMGTIKPSDDSTNYAQKFQGRVSMTRDTSTSTVYMELSSLRYEDTAVYYCAREARGYYDRSGYYHPGYFDYWGQGTLVTVSS VL: QSVLTQPASVSGSPGQSITISCTGTSSDVGGYNFVSWYQQHPGKAPKLMIYEVSDRPSGVSSRFSGSKSGNTASLTISGLQAEDEADYYCFSYTTSTTWVFGGGTKLTVL | 21.3 pM |
| P14-37 (antibody, V domains shown, also called candidate antibody molecule P14-37) VH: EVQLVESGGGLVKPGGSLRLSCAASGFTFSNAWMSWVRQAPGKGLEWVGRIKRNSDGGTTDHAAPVTGRFIISRDDSKNTLYLQMNSLRTEDTAVYYCTTDLDTVVRRVVITDHDAFDIWGQGTMVTVSS VL: DIQMTQSPSSLSASVGDRVTITCRASQSISSFLNWYQQKAGKAPKLLIYAASSLQSGVPSRFSGSGSGTDFSLTISNLQPEDFATYYCQQSYSTPSITFGQGTRLEIK | 16.1 pM |
